B1: Hairpin Ribozyme (parent)
chain: GUCCUCUUUCACGUGCGCGUGAAAGAGAGAAGUGAACCAGAGAAACACACGUUGUGGUAUAUUACCUGGUA

Variants of: B1
Assay: self-cleavage, relative activity (ratio to wild type); higher = more cleavage; co-transcriptional

In order of falling self-cleavage:
1. C3A G34A  1.07
2. C3U G34C  1.03
3. C4G G34U  0.977
4. C3G G34C  0.911
5. C3A U7A  0.822
6. C3A G51A  0.819
7. C3A U58C  0.811
8. C3A U7G  0.703
9. C3U A71G  0.653
10. C4G G27C  0.653
11. C3A U58A  0.637
12. C3A C12G  0.636
13. C3A C12A  0.603
14. C3U A22G  0.603
15. C3A C16G  0.587
16. C3A G19U  0.582
17. C3U A28U  0.582
18. C3U A28G  0.554
19. C3G A28C  0.541
20. C3A G19C  0.535
21. C4G G34A  0.5
22. C3U U14A  0.495
23. C3U A22C  0.491
24. C3U C18U  0.487
25. C3A C10A  0.461
26. C3A G25A  0.457
27. C3U U14C  0.451
28. C4U A11G  0.425
29. C3U U20A  0.374
30. C3G A28G  0.362
31. C4A G15C  0.358
32. C3A U60G  0.338
33. C3U U9G  0.337
34. C3U A36U  0.33
35. C4U A24C  0.33
36. C4G A22G  0.326
37. C3A C37G  0.32
38. C3U U5G  0.318
39. C3G U58C  0.311
40. C3G C16U  0.305
41. C3G U20C  0.302
42. C3G G15A  0.281
43. C3G A11U  0.28
44. C4A A61G  0.279
45. C3A G69A  0.275
46. C3A U58G  0.274
47. C3G U70G  0.272
48. C4U A24G  0.272
49. C4U A44G  0.269
50. C4G A26C  0.259
51. C3U U58A  0.257
52. C4U A11U  0.256
53. C3U A44G  0.254
54. C3G G21U  0.252
55. C3G C66U  0.251
56. C4A A28G  0.247
57. C4A A31U  0.245
58. C4A C12G  0.245
59. C3U U8G  0.245
60. C4G A31G  0.238
61. C4A C16G  0.236
62. C4G C46U  0.235
63. C4G A11U  0.232
64. C3G A22C  0.227
65. C4G U20A  0.225
66. C4A A22G  0.222
67. C4A A22U  0.22
68. C3G A26U  0.214
69. C4A A49C  0.213
70. C3A G69U  0.212
71. C3A G68C  0.211
72. C4G U5A  0.203
73. C4U A45G  0.199
74. C4U A35U  0.199
75. C4A U60A  0.197
76. C4G A22U  0.196
77. C4A G32A  0.195
78. C4G G19C  0.194
79. C4G G69C  0.193
80. C3A U33C  0.191
81. C3G G68C  0.188
82. C3G G42U  0.188
83. C4U A39U  0.188
84. C3U C50U  0.187
85. C3A U62A  0.184
86. C3U G68A  0.183
87. C3U G56C  0.182
88. C4A G21U  0.178
89. C3G G54A  0.177
90. C4A G21C  0.175
91. C3G A36U  0.174
92. C4A G19A  0.174
93. C3U C50G  0.174
94. C4A A61C  0.173
95. C3A G68A  0.172
96. C3G A43C  0.168
97. C4A G32U  0.168
98. C4A G56U  0.166
99. C4A A39C  0.166
100. C3G U8C  0.166
101. C4G G40C  0.164
102. C4A C6G  0.161
103. C3U A43C  0.161
104. C3U G69A  0.16
105. C4A A49G  0.157
106. C4G G25C  0.157
107. C3A C38G  0.156
108. C3G U33G  0.156
109. C4A G32C  0.155
110. C3G A44C  0.153
111. C4G C48A  0.151
112. C4A A45G  0.151
113. C3U C46U  0.151
114. C4A A45U  0.148
115. C4G A23U  0.147
116. C4G U60G  0.147
117. C3A U33G  0.146
118. C3G G25A  0.146
119. C4A C6U  0.143
120. C3G U33C  0.143
121. C4A G69A  0.141
122. C4A A36C  0.138
123. C3G G25U  0.138
124. C4G A44C  0.136
125. C4A A64G  0.134
126. C3G C38U  0.133
127. C3G U5C  0.132
128. C4A A22C  0.131
129. C4G U33G  0.13
130. C4U A30G  0.128
131. C4A U5A  0.125
132. C4G A39U  0.123
133. C4U A45C  0.122
134. C4A A61U  0.122
135. C3U G29U  0.117
136. C4A U14C  0.115
137. C4G A11C  0.113
138. C4G U55G  0.113
139. C4G A45U  0.112
140. C3G A43U  0.111
141. C3U G29C  0.106
142. C4G U60A  0.105
143. C3A C46G  0.105
144. C4U A30C  0.104
145. C4G C46A  0.102
146. C3A U62G  0.101
147. C3G U58G  0.0994
148. C4G C50G  0.0987
149. C4A A47U  0.0985
150. C3U G56U  0.0961
151. C3G U60G  0.0943
152. C4G C38A  0.0909
153. C4G G21A  0.0893
154. C3A G40C  0.0884
155. C4G U67C  0.0875
156. C3G C38G  0.0857
157. C4A A28C  0.0846
158. C3G A31G  0.0813
159. C3G A31C  0.0694
160. C4G U33C  0.0651
161. C3G A59C  0.064
162. C4A A43C  0.0588
163. C3G A31U  0.057
164. C3G A43G  0.0516
165. C4G U5G  0.0498
166. C4A U14G  0.0473
167. C3G U9G  0.0419

From the RNAGym collection of RNA variant scans (doi:10.7554/elife.80360)
